Measured values taken from patent US20230183305A1, “KERATIN BD-11, PREPARATION METHOD THEREFOR AND PHARMACEUTICAL COMPOSITION AND USE THEREOF” (INSTITUTE OF MATERIA MEDICA, CHINESE ACADEMY OF MEDICAL …, priority 2019, published 2023).

Tests used:
[1] = test system: lipopolysaccharide (LPS) induced fever in SD rats; assay: Lipopolysaccharide (LPS) induced fever model in SD rats; assay type: in vivo, rat; conditions: for Body temperature 2 hours after modeling: 2 h after LPS 20 µg/kg i.p.; for Body temperature 2 hours after modeling / Body temperature 4 hours after modeling / Body temperature 6 hours after modeling / Body temperature 8 hours after modeling: n=8; for Body temperature 4 hours after modeling: 4 h after LPS 20 µg/kg i.p.; for Body temperature 6 hours after modeling: 6 h after LPS 20 µg/kg i.p.; for Body temperature 8 hours after modeling: 8 h after LPS 20 µg/kg i.p.
Description: • Animals: 230-260 grams of male SD rats; • Drugs: lipopolysaccharide (LPS, SIGMAL-2880), aspirin (SIGMA A2093), protein BD-11; • Instruments: electronic balance (SARTORIUS BP121S type), electronic clinical thermometer (CITIZEN CT-513W type).
Experiment grouping: • Normal control group; • Model group: lipopolysaccharide fever model; • Positive control group: Aspirin 300 mg/kg group; • Protein BD-11, 10 mg/kg group, 50 mg/kg group. Method: the method of intraperitoneal injection of Lipopolysaccharide to replicate rat fever model.
Preparation of experimental animals: After the experimental animals adapt to the experimental environment (temperature 22° C.±2° C., relative humidity 50%±2%) for 1 day. Pre-adaptation to measure rectal temperature at 8:00 and 15:00, rats were fasted and water was taken freely 12 h before experiment, and let the animal to empty its feces before measuring the rectal temperature. Apply petroleum jelly to the electronic thermometer probe before each temperature measurement. Insert the rat rectum 2 cm (can be marked at 2 cm to ensure that the depth of each insertion is consistent), and record the body temperature after the reading is stable.
Intraperitoneal injection of lipopolysaccharide to replicate rat fever model: The body temperature of the rats was measured before modeling. Qualified rats with a body temperature of 36.2-37.3° C. were selected and randomly divided into groups with 8 rats in each group. After oral administration of aspirin and different doses of protein BD-11, lipopolysaccharide (20 µg/kg, 2 ml/kg) was injected intraperitoneally immediately, and the normal control group was injected intraperitoneally with an equal volume of normal saline. The body temperatures of the rats were monitored after 2 hours for a total of 8 hours.
According to the body temperature measured at each time point on the day of the experiment, calculate the mean, standard deviation and standard error of the body temperature of each group of rats. The data of each group was compared with TTEST, and P<0.05 was considered as a significant difference.
Immediately after oral administration of aspirin (300 mg/kg), protein BD-11 (10 mg/kg, 50 mg/kg), intraperitoneal injection of 20 µg/kg lipopolysaccharide was performed to establish a model. The animal body temperature was monitored at 2 hours, 4 hours, 6 hours, and 8 hours after modeling.

[2] = test system: PLO-induced epilepsy in ICR mice; assay: Pilocarpine (PLO) induced convulsive epilepsy in mice; assay type: in vivo, mouse; parameters: mortality rate: unit not given here; conditions: for Cases of deaths / Grade IV seizure rate / mortality rate / Cases of Grade IV: PLO 225 mg/kg i.p., 10 mice; for Cases of Grade IV: 30 min observation; for Grade II seizure incubation period / Grade III seizure incubation period / Grade IV seizure incubation period: mean±SEM; for Grade IV seizure incubation period: no Grade IV recorded as maximum 1800 s
Description: • Animals: male ICR mice; • Drugs: Pilocarpine HCl (PLO, pilocarpine, pilocarpine hydrochloride), Diazepam (diazepam tablets), protein BD-11.
Experiment grouping: • Model group: • Diazepam 2 mg/kg group; • Protein BD-11, 50 mg/kg group, 200 mg/kg group.
The drug was administered once in the afternoon the day before modeling, PLO-225 mg/kg (modeling agent) was injected intraperitoneally 1 hour after the test drug was administered intragastrically on the day of modeling. And positive drug can be administered once 20 minutes before modeling. Observe for 30 minutes after PLO injection.
Observation indicators: ①Seizure situation: the time of seizures from Grade II to Grade IV; (2)the time to death.
(§1) Seizure grade: Refer to Racine grading standard: Grade 0: No response; Grade I: manifested as twitching of facial muscles or the corners of the mouth; Grade II: can nod; Grade III: twitching of one limb; Grade IV: rigidity or body twitching; Grade V: generalized epilepsy (generalized tonic seizures).
Count the number of Grade IV seizures and deaths in each group of mice in the experiment; Grade II, III and IV incubation period. […] Chi-square test was used for statistics of the number of cases. The mean value and standard error of the incubation period were calculated, and TTEST was used to compare the model group with other groups. P<0.05 was considered as a significant difference.

[3] = test system: PTZ-induced epilepsy in ICR mice; assay: Pentylenetetrazole (PTZ) induced epilepsy in mice; assay type: in vivo, mouse; parameters: mortality rate: unit not given here; conditions: for Cases of deaths / Grade IV seizure rate / mortality rate / Cases of Grade IV: PTZ 65 mg/kg i.p., 10 mice; for Cases of Grade IV: 15 min observation; for Grade III seizure incubation period / Grade IV seizure incubation period: mean±SEM; for Grade IV seizure incubation period: no Grade IV recorded as maximum 900 s
Description: • Animals: male ICR mice; • Medicines: Pentylenetetrazol (PTZ), Retigabine, Protein BD-11.
Experiment grouping: • Model group; • Retigabine 60 mg/kg group; • Protein BD-11, 50 mg/kg group, 200 mg/kg group;
The drug was administered once in the afternoon the day before modeling, On the day of modeling, PTZ-65 mg/kg (modeling agent) was injected intraperitoneal 1 hour after the test drug was administered intragastrically, and the positive drug can be administered once half an hour before modeling. Continue to observe for 15 minutes after injection of PTZ.
Observation index: ①Seizure situation: the time of seizures from Grade III to […]; ②Death situation
as §1
Count the cases of seizures and deaths in each group of mice in the experiment; Grade III and IV incubation period. The incubation period of mice that have not attacked to Grade IV is recorded as the maximum of 900 seconds. Chi-square test was used for statistics of the number of cases. Calculate the mean and standard error of the incubation period. Use TTEST to compare the model group with other groups, and P<0.05 is considered as a significant difference.

B1: BD-11: recombinant keratin, amino acid sequence SEQ ID NO:1, expressed in E. coli, band around 59 kD; Example 4 batch tested (protein, listed as Bos taurus)
chain: MSRQSTITFQTSSRRGFSTASATTPATSRSRFSSASVTHSPAGSGGLGRISGFGSRSLYNLGGTKRVSISGCGSNFRSGFGGRASSGFGVSGGFGYGGGIGGGHGGCGFSVCPPGGIQEVTVNQSLLTPLNLQIDPNIQRVRKEEREQIKTLNNKFASFIDKVRFLEQQNKVLETKWSLLQEQGTRTVRQSLEPFFEAYITDLRRQLDSITTERGRLDAELRTMQDVVEDFKVRYEDEINKRTAAENEFVALKKDVDAAYLNKVDLEAKANSLTDEINFLQMLFEAELCQMQTRVSDTSVVLSMDNNRSLDLDSIIAEVKAQYEEIANRSRAEAESWYQTKYEELQVTAGQHGDDLRNTKQEISETNRMIQRLRAEIDNVKKQCASLQTAIADAEQRGELALKDARAKLVDLEEALQKSKQDMARLLREYQELMNIKLALDVEIATYRKLLEGEECRLSGEGVSPVNISVVTSTVSSGYGGGSSIGSGSLGLSGGSGCSFMTSGGHSLGGSSFSNSSSRGLGGSGSSFKFVSTTSSSRKSYKH
Effect on increase in body temperature (summary) ([1]; 2, 4, 6 and 8 hours after modeling, dose not given): significantly inhibit the increase in body temperature
Body temperature 2 hours after modeling ([1]; BD-11 10 mg/kg oral): 37.2±0.2 °C
Body temperature 4 hours after modeling ([1]; BD-11 10 mg/kg oral): 37.7 °C
Body temperature 6 hours after modeling ([1]; BD-11 10 mg/kg oral): 37.6 °C
Body temperature 8 hours after modeling ([1]; BD-11 10 mg/kg oral): 37.4±0.1 °C
Body temperature 2 hours after modeling ([1]; BD-11 50 mg/kg oral): 37.3 ± 0.1 °C
Body temperature 4 hours after modeling ([1]; BD-11 50 mg/kg oral): 37.5 ± 0.2 °C
Body temperature 6 hours after modeling ([1]; BD-11 50 mg/kg oral): 37.7 °C
Body temperature 8 hours after modeling ([1]; BD-11 50 mg/kg oral): 37.7±0.2 °C
Effect on body temperature of model rats ([1]; BD-11 10, 50 mg/kg oral, 2 hours after modeling): tendency to lower the body temperature of model rats 2 hours after modeling, but there is no statistically significant
Cases of deaths ([2]; BD-11 50 mg/kg intragastric): 0
Grade IV seizure rate ([2]; BD-11 50 mg/kg intragastric): 50%
mortality rate ([2]; BD-11 50 mg/kg intragastric): 0
Cases of Grade IV ([2]; BD-11 50 mg/kg intragastric): 5
Grade II seizure incubation period ([2]; BD-11 50 mg/kg, PLO model): 95 ± 6 s
Grade III seizure incubation period ([2]; BD-11 50 mg/kg, PLO model): 164 ± 10 s
Grade IV seizure incubation period ([2]; BD-11 50 mg/kg, PLO model): 1357 ± 154 s
Incubation period of epilepsy Grade III, comparison with model group ([2]; BD-11 200 mg/kg dose group, PLO model): statistically different from the model group
Cases of deaths ([2]; BD-11 200 mg/kg intragastric): 0
Grade IV seizure rate ([2]; BD-11 200 mg/kg intragastric): 60%
mortality rate ([2]; BD-11 200 mg/kg intragastric): 0
Cases of Grade IV ([2]; BD-11 200 mg/kg intragastric): 6
Grade II seizure incubation period ([2]; BD-11 200 mg/kg, PLO model): 96 ± 6 s
Grade III seizure incubation period ([2]; BD-11 200 mg/kg, PLO model): 164 ± 7 s
Grade IV seizure incubation period ([2]; BD-11 200 mg/kg, PLO model): 1114 ± 191 s
Effect on incubation period of Grade III epilepsy in mice (summary) ([2]; dose not given): significantly prolong the incubation period of Grade III epilepsy
Cases of deaths ([3]; BD-11 50 mg/kg intragastric): 0
Grade IV seizure rate ([3]; BD-11 50 mg/kg intragastric): 90%
mortality rate ([3]; BD-11 50 mg/kg intragastric): 0
Cases of Grade IV ([3]; BD-11 50 mg/kg intragastric): 9
Grade III seizure incubation period ([3]; BD-11 50 mg/kg, PTZ model): 68 ± 5 s
Grade IV seizure incubation period ([3]; BD-11 50 mg/kg, PTZ model): 203 ± 81 s
Incubation period of Grade III epilepsy, comparison with model group ([3]; BD-11 200 mg/kg dose group, PTZ model): significantly different from the model group
Cases of deaths ([3]; BD-11 200 mg/kg intragastric): 0
Grade IV seizure rate ([3]; BD-11 200 mg/kg intragastric): 60%
mortality rate ([3]; BD-11 200 mg/kg intragastric): 0
Cases of Grade IV ([3]; BD-11 200 mg/kg intragastric): 6
Grade III seizure incubation period ([3]; BD-11 200 mg/kg, PTZ model): 94 ± 12 s
Grade IV seizure incubation period ([3]; BD-11 200 mg/kg, PTZ model): 428 ± 130 s
